Reference: US8663642B2, “Anti-CD70 antibody-drug conjugates and their use for the treatment and prevention of cancer and immune disorders” (priority 2003, dated 2014)

Assays:
Caki-1 cells = experiment: 3H-TdR proliferation assay, RCC lines; type: cell-based, human; settings: Caki-1 cells
[1] = test system: normal kidney epithelial lines RPTEC and HRCE; experiment: Proliferation/cytotoxicity on normal kidney epithelial lines; type: cell-based, human
[2] = test system: CD70^+ CD8^+/Vβ17^+ T cells; experiment: In vitro deletion of M1 peptide-specific T cells (flow cytometry, viable counts); type: cell-based, human
Experimental: PBMCs from a normal HLA-A0201donor were stimulated with the M1 peptide for 5 days. 1F6 ADCs or control non-binding IgG (cIgG) ADCs were added to cells to a final concentration of 1 μg/ml. Total viable cell counts were conducted at 24, 48, and 76 hours post drug addition. Total numbers of CD8^+/Vβ17^+ for each culture condition are calculated (upper panel).
FIG. 19: Dose-response comparison of anti-CD70 ADCs on deletion of antigen-specific CD8^+/Vβ17^+ cells. PBMCs from a normal HLA-A0201donor were stimulated with the M1 peptide for 5 days. 1F6 ADCs or control non-binding IgG (cIgG) ADCs were given to cells to the specified final concentrations. The percentages of CD8^+/Vβ17^+ cells 4 days post ADC addition was determined by flow cytometry as in FIG. 17.
To examine CD70 expression on activated antigen-specific T cells, PBMCs from a normal donor expressing HLA-A0201 were stimulated with the M1 peptide. PBMCs were seeded at 2×10^6 cells/ml with 5 μg/ml of M1 peptide in AIMV medium supplemented with 5% human AB serum. IL-2 (Proleukin, Chiron) and IL-15 (R&D Systems, MN) were added to final concentrations of 20 IU/ml and 5 ng/ml, respectively, once every two days beginning on day 2 after culture initiation. The expansion of CD8^+/Vβ17^+ T cells and induction of CD70 on the CD8^+/Vβ17^+ was followed by three-color flow cytometry. Vβ17^+ T cells were identified by the anti-TCRVβ17 mAb clone E17.5F3 (Beckman Coulter, Miami, Fla.).
PBMCs from a normal donor expressing HLA-A0201 were stimulated with the M1 peptide as described in Example 11. On day 5, cells were harvested, washed, and re-seeded at 0.5-1×10^6 cells/ml (approximately 100,000 of CD8^+/Vβ17^+ T cells) in fresh AIMV medium supplemented with 5% human AB, 20 IU/ml of IL-2, and 5 ng/ml of IL-15. 1F6 or control non-binding IgG (cIgG) ADCs were added to some cultures to a final concentration of 1 μg/ml. Total viable cell counts were conducted 24, 48, and 76 hours after ADC addition. Two-color flow cytometry was conducted to determine the percentages of CD8^+/Vβ17^+ cells among the viable cells. The absolute number of CD8^+/Vβ17^+ T cells in each culture was then calculated. […] The effects of 1F6 ADCs on the CD8^+/Vβ17^− cells were also evaluated.
The potency of three 1F6 ADCs was then compared. HLA-A0201 PBMCs were stimulated with the M1 peptide and re-seeded as described for FIG. 18 with the various ADCs at the indicated concentrations (FIG. 19). The percent of CD8^+/Vβ17^+ T cells after a 96-hour incubation was determined.

Caki-2 cells = experiment: 3H-TdR proliferation assay, RCC lines; type: cell-based, human
[3] = test system: PBMCs stimulated with irradiated allogeneic CESS cells; experiment: Mixed lymphocyte reaction (3H-TdR); type: cell-based, human; settings: MLR, 5-day culture
CD70^− Hs 835.T cells = experiment: 3H-TdR proliferation assay, CD70-negative RCC line; type: cell-based, human; settings: CD70^− Hs 835.T cells
CD70^− Jurkat cells = experiment: 3H-TdR proliferation assay, hematologic lines; type: cell-based, human; settings: at concentrations as high as 2 μg/ml
Experimental: (§1) FIG. 5: Effects of anti-CD70 ADCs on the proliferation of transformed hematologic cell lines. A subset of the CD70^+ cell lines shown in FIG. 4 and the CD70^− Jurkat cell line were tested for their sensitivity toward 1F6 ADCs. Graded doses of the 1F6-vcMMAE, 1F6-vcAFP, or the corresponding non-binding control IgG (IgG) ADCs were added to cells at the initiation of culture. Cells were exposed to the ADCs continuously for a total of 96 hours. Proliferation was determined by pulsing with ^3H-TdR during the last 16 hours of incubation. The upper panels show the response of the WSU-NHL and Jurkat lines. The lower panel summaries the responses by the tested cell lines to 1F6-vcMMAE and 1F6-vcAFP in form of IC50s.
(§2) A subset of the CD70^+ hematologic lines listed in FIG. 4 was tested for sensitivity to the 1F6 ADCs. These lines were seeded at 5,000 cells per well in 96-well plates in quadruplicates in a total of 200 μl of culture medium containing graded doses of the ADCs as indicated in the FIG. 5 and the accompanying figure legend. Proliferation assays were carried out for 96 hours. Tritiated thymidine (^3H-TdR) incorporation during the last 16 hours of incubation was used to assess DNA synthesis. The responses of a CD70^+ B lymphoma cell line WSU-NHL and the CD70^− Jurkat cells are shown in the upper panels of FIG. 5. […] Proliferation inhibitory effects were apparent when the ADCs were used at concentrations higher than 0.005 μg/ml. […] On the other hand, proliferation of the CD70^− Jurkat acute T leukemia cell line was not affected by either 1F6-vcMMAE or 1F6-vcAFP at concentrations as high as 2 μg/ml. […] The responses of other CD70^+ cell lines tested are summarized in the lower panel of FIG. 5. […] Moreover, EBV-LCLs are phenotypically very similar to activated normal B cells.

WSU-NHL cells = experiment: 3H-TdR proliferation assay, hematologic lines; type: cell-based, human; settings: 96 hours, 3H-TdR last 16 hours
Experimental: as §1, §2

CD70^+ RCC lines [4] = experiment: 3H-TdR proliferation assay, panel of RCC lines; type: cell-based, human
Caki-1 tumors = experiment: Caki-1 subcutaneous xenograft model of RCC; type: in vivo, nude mice; settings: Caki-1 xenograft, q4d×4
Source text: Tumors were initiated in nude mice by implanting tissue tumor blocks (30 mm^3 in size) containing Caki-1 cells. Treatment began when average tumor size within a treatment group was around 100 mm^3. In the upper panel, treatment for the IgG and 1F6 groups began 17 days post implantation (filled arrow), while treatment for the 1F6-vcAFP and IgG-vcAFP groups began 25 days post implantation (open arrow). Indicated doses of either unconjugated mAbs or their ADCs were given for one course on a q4d×4 schedule.
Using xenografts of the Caki-1 line in nude mice, the […] antitumor activity of 1F6-vcAFP was tested. To establish Caki-1 tumors, nude mice were injected subcutaneously with 5×10^6 Caki-1 cells in 0.2 ml PBS. […] Caki-1-containing tumors were excised from tumor bearing mice and tumor tissue blocks of approximately 30 mm^3 were prepared. Naive nude mice to be used for evaluating in vivo antitumor activity of anti-CD70 ADC were each implanted subcutaneously with one tumor block of 30 mm^3. […] Treatment was initiated when the average tumor size within a group was approximately 100 mm^3 (FIG. 12, arrows).

[5] = test system: tetanus toxoid-specific T cells; type: cell-based, human
CD70^+ RCC lines [6] = settings: in 5 of 7 CD70^+ RCC lines tested
Experimental: To examine the responses of CD70^+ RCC lines to 1F6 ADCs, cells were seeded between 1,000 to 3,000 cells per well in 100 μl of medium. An additional 100 μl of culture medium containing graded doses of ADCs were added to the wells after cells were allowed to attached overnight. In addition to DNA synthesis, cell viability, as a reflection of the cytotoxic activities of ADCs, was also assayed by the reduction of alamarBlue™ (Biosource International, Camarillo, Calif.). The alamarBlue™ dye was added at a one to four dilution during the last 4 to 24 hours of the incubation. Dye reduction was assessed by fluorescence spectrometry using the excitation and emission wavelengths of 535 nm and 590 nm, respectively. For analysis, the amount of ^3H-TdR incorporated or the extent of alamarBlue™ reduction by the treated cells was compared to that of the untreated control cells.

Vβ17^− T cells = experiment: Anti-CD3 plus anti-CD28 re-stimulation assay of bystander T cells (3H-TdR); type: cell-based, human; settings: Vβ17^− T cells from culture treated with 1 μg/ml, 96 hours, no exogenous IL-2
Source text: PBMCs from a normal HLA-A0201donor were stimulated with the M1 peptide for 5 days.

[7] = test system: Hodgkin's disease cell lines; experiment: Cytotoxic activity against Hodgkin's disease cell lines (panel); type: cell-based, human
Experimental: Cell surface CD70 expression was also evaluated in panels of Hodgkin's disease (Table 4) and glioblastoma cell lines (Table 5). The copy number of CD70 molecules expressed by each cell line was determined by quantitative flow cytometry using the QIFIKit® (Dako, Carpinteria, Calif.). The response of these cells to anti-CD70 ADC-mediated cytotoxicity was determined.

[8] = test system: CD70-expressing multiple myeloma cells; experiment: Cytotoxic activity against multiple myeloma cell lines (panel); type: cell-based, human
Experimental: Cell surface CD70 expression was evaluated in a panel of multiple myeloma cell lines (Table 3). Copy number of CD70 molecules expressed by each cell line was determined by quantitative flow cytometry using the QIFIKit® (Dako, Carpinteria, Calif.). Response of these cells to anti-CD70 ADC-mediated cytotoxicity was determined.

B1: 1F6-vcMMAE: anti-CD70 mAb 1F6 linked to monomethyl auristatin E by the valine-citrulline (vc) dipeptide linker (conjugate)
VH: QIQLVQSGPEVKKPGETVKISCKASGYTFTNYGMNWVKQAPGKGLKWMGWINTYTGEPTYADAFKGRFAFSLETSASTAYLQINNLKNEDTATYFCARDYGDYGMDYWGQGTSVTVSS
VL: DIVLTQSPASLAVSLGQRATISCRASKSVSTSGYSFMHWYQQKPGQPPKLLIYLASNLESGVPARFSGSGSGTDFTLNIHPVEEEDAATYYCQHSREVPWTFGGGTKLEIKR
modifications: non-natural residues
notes: anti-CD70 mAb 1F6 linked to monomethyl auristatin E by the valine-citrulline (vc) dipeptide linker
IC50, proliferation (Caki-1 cells): lower than 20 ng/ml
activity on proliferation [1]: not active
number of CD8^+/Vβ17^+ T cells ([2]; 1 μg/ml, 76 hours after ADC addition): approximately 400,000
inhibition of CD8^+/Vβ17^+ T cell expansion ([2]; 96-hour incubation): dose-dependent inhibition
relative inhibitory activity ([2]; 96-hour incubation): weaker than both 1F6-vcAFP and 1F6-vcMMAF
IC50, proliferation (Caki-2 cells): lower than 20 ng/ml
effect on T cell proliferation [3]: substantially inhibited T cell proliferation
activity on proliferation (CD70^− Hs 835.T cells): not active
effect on proliferation of Jurkat cells (CD70^− Jurkat cells): not affected
effect on the proliferation of WSU-NHL cells (WSU-NHL cells): dose-dependent inhibitory effects
activity on proliferation (CD70^+ RCC lines [4]; other CD70^+ RCC lines (not Caki-1, Caki-2)): not active

B2: 1F6: anti-human CD70 monoclonal antibody obtained from the Central Laboratory of the Netherlands Red Cross Blood Transfusion Service (antibody, V domains shown)
VH: QIQLVQSGPEVKKPGETVKISCKASGYTFTNYGMNWVKQAPGKGLKWMGWINTYTGEPTYADAFKGRFAFSLETSASTAYLQINNLKNEDTATYFCARDYGDYGMDYWGQGTSVTVSS
VL: DIVLTQSPASLAVSLGQRATISCRASKSVSTSGYSFMHWYQQKPGQPPKLLIYLASNLESGVPARFSGSGSGTDFTLNIHPVEEEDAATYYCQHSREVPWTFGGGTKLEIKR
modifications: Mature 1F6 Heavy Chain Variable region from Figure 1; Mature 1F6 Light Chain Variable Region from Figure 1
notes: anti-human CD70 monoclonal antibody obtained from the Central Laboratory of the Netherlands Red Cross Blood Transfusion Service
therapeutic activity / tumor growth (Caki-1 tumors): Very little therapeutic activity
effect on tetanus toxoid-induced T cell proliferation [5]: did not show a significant effect

B3: 1F6-vcMMAF: anti-CD70 mAb 1F6 linked to monomethyl auristatin phenylalanine by the valine-citrulline (vc) dipeptide linker (conjugate)
VH: QIQLVQSGPEVKKPGETVKISCKASGYTFTNYGMNWVKQAPGKGLKWMGWINTYTGEPTYADAFKGRFAFSLETSASTAYLQINNLKNEDTATYFCARDYGDYGMDYWGQGTSVTVSS
VL: DIVLTQSPASLAVSLGQRATISCRASKSVSTSGYSFMHWYQQKPGQPPKLLIYLASNLESGVPARFSGSGSGTDFTLNIHPVEEEDAATYYCQHSREVPWTFGGGTKLEIKR
modifications: non-natural residues
notes: anti-CD70 mAb 1F6 linked to monomethyl auristatin phenylalanine by the valine-citrulline (vc) dipeptide linker
IC50 values to induce cytotoxicity (CD70^+ RCC lines [6]): lower than 30 ng/ml
CD8^+/Vβ17^+ T cells in the culture ([2]; 1 μg/ml added on day 5, 4 days, untreated 47%): 14%
inhibition of CD8^+/Vβ17^+ T cell expansion ([2]; 96-hour incubation): dose-dependent inhibition
response to anti-CD3 plus anti-CD28 re-stimulation (Vβ17^− T cells): comparable to that of the untreated cells
IC50 values for proliferation inhibition (CD70^+ RCC lines [4]; CD70^+ RCC lines tested): lower than 30 ng/ml

B4: c1F6-vcMMAF4: chimeric 1F6 (c1F6)-vcMMAF4 anti-CD70 ADC (conjugate)
VH: QIQLVQSGPEVKKPGETVKISCKASGYTFTNYGMNWVKQAPGKGLKWMGWINTYTGEPTYADAFKGRFAFSLETSASTAYLQINNLKNEDTATYFCARDYGDYGMDYWGQGTSVTVSS
VL: DIVLTQSPASLAVSLGQRATISCRASKSVSTSGYSFMHWYQQKPGQPPKLLIYLASNLESGVPARFSGSGSGTDFTLNIHPVEEEDAATYYCQHSREVPWTFGGGTKLEIKR
modifications: non-natural residues
notes: chimeric 1F6 (c1F6)-vcMMAF4 anti-CD70 ADC
IC50 values, range over the panel [7]: 0.41 to 42 ng/mL
IC50 values, range over the panel [8]: 1.2 to 160 ng/mL
